Reference: patent US20260242444A1 (SUZHOU FORLONG BIOTECHNOLOGY, published 2026)
Blank lines part the entries; values can stand above or below the molecule they belong to.

Tests used:
[1] = biological target: IL-15R β protein (UniProt P14784); assay: BLI (Octet-RED), IL-15Rβ immobilized on Ni-NTA biosensors, serial dilutions of the complex as analyte, global 1:1 fit
[2] = biological target: FL115-WT (Homo sapiens (Human), UniProt P40933 49-162); assay: as above
Description: The binding activity of an agonistic interleukin 15 complex to the receptor IL-15R β was assayed using an Octet-RED (Pall ForteBio) Bio-Layer Interferometry (BLI) instrument. […] 6.2 (2022): e2100966, PMID: 35174992). The baseline was established in kinetics buffer and loaded biosensors were dipped into wells containing serial dilutions of an agonistic interleukin 15 complex for 300 s. FL115 (also named FL115-V2), an agonistic interleukin 15 complex according to an embodiment of the application, contains a monomeric IL-15 receptor αSu/Fc fusion protein having the amino acid sequence of SEQ ID NO: 2 and a mutant IL15 having the amino acid sequence of SEQ ID NO: 3. FL115-WT, another agonistic interleukin 15 complex according to an embodiment of the application, contains a monomeric IL-15 receptor αSu/Fc fusion protein having the amino acid sequence of SEQ ID NO: 2 and the wild-type IL15 having the amino acid sequence of SEQ ID NO: 4. The agonistic interleukin 15 complex was bound to the immobilized IL-15R β protein. The binding complexes of the IL-15R β protein-agonistic IL15 complex were then allowed to dissociate in kinetics buffer. Global data fitting to a 1:1 binding model was used to estimate the affinity using Data Analysis software version 8.1.

Chain of FL115-WT (chain, as listed by the source limits assumed, chain 1 of 2): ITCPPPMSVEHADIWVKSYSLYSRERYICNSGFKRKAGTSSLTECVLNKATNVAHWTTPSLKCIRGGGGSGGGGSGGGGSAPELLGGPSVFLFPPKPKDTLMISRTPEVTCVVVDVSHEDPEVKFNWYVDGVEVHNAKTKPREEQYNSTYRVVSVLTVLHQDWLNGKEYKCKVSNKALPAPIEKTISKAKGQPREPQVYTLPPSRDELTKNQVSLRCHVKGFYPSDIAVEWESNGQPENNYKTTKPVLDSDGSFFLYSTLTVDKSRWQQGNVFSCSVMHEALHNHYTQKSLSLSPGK
Chain of FL115-WT (P40933 49-162 limits assumed, chain 2 of 2): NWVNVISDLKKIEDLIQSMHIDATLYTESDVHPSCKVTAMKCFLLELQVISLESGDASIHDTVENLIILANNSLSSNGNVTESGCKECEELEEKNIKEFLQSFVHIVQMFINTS

Kd [1]: 3.9 nM
koff [1]: 0.000235 s⁻¹
kon [1]: 60400 M⁻¹ s⁻¹
Molecule: ALT 803 (Fc fusion)

Kd [2]: 62.7 nM
koff [2]: 0.00108 s⁻¹
kon [2]: 17200 M⁻¹ s⁻¹
B1: IL-15R β protein (receptor, UniProt P14784 27-239, looked up)
chain: AVNGTSQFTCFYNSRANISCVWSQDGALQDTSCQVHAWPDRRRWNQTCELLPVSQASWACNLILGAPDSQKLTTVDIVTLRVLCREGVRWRVMAIQDFKPFENLRLMAPISLQVVHVETHRCNISWEISQASHYFERHLEFEARTLSPGHTWEEAPLLTLKQKQEWICLETLTPDTQYEFQVRVKPLQGEFTTWSPWSQPLAFRTKPAALGKD
notes: also called IL-15 receptor β; IL-2/IL-15 receptor beta
